The series concerns the molecule itself. Nature of the series: SEC; analytical SEC, S200 Increase 3.2/300 GL, 20 mM Tris pH 7.5, 100 mM NaCl, 0.5 mM TCEP; 0.1 mL of 1.2 mg/mL (5 uM hexamer/pseudohexamer) Msp1 with 2 mM ATP, 2 mM MgCl2; 0.1 mL/min. A general note: In gel filtration, larger molecules generally elute earlier.

Residue numbers refer to the chain shown, from its start. Names may count otherwise.

B1: His6‐TEV‐Msp1 E193Q Monomer (enzyme, UniProt P28737 33-362, looked up)
chain: DVESGPLSGKSRESKAKQSLQWEKLVKRSPALAEVTLDAYERTILSSIVTPDEINITFQDIGGLDPLISDLHESVIYPLMMPEVYSNSPLLQAPSGVLLYGPPGCGKTMLAKALAKESGANFISIRMSSIMDKWYGESNKIVDAMFSLANKLQPCIIFIDQIDSFLRERSSTDHEVTATLKAEFMTLWDGLLNNGRVMIIGATNRINDIDDAFLRRLPKRFLVSLPGSDQRYKILSVLLKDTKLDEDEFDLQLIADNTKGFSGSDLKELCREAALDAAKEYIKQKRQLIDSGTIDVNDTSSLKIRPLKTKDFTKKLRMDATSTLSSQPLD
notes: Msp1 with the Walker B mutation E193Q, soluble construct: deletion of the first 32 residues as stated for the soluble constructs; A TEV site follows the His6 tag; No Strep tag; also called EQ; EQ monomer; source: E. coli BL21 pRIL, purified (Ni-NTA)
The term stoichiometry N denotes a count of units in the complex or per binding partner. Turning to B1, the “stoichiometry N” value was determined as 6.

B2: His6‐WT‐EQ‐2xStrep Dimer (covalently linked Msp1 dimer, soluble) (enzyme)
chain: DVESGPLSGKSRESKAKQSLQWEKLVKRSPALAEVTLDAYERTILSSIVTPDEINITFQDIGGLDPLISDLHESVIYPLMMPEVYSNSPLLQAPSGVLLYGPPGCGKTMLAKALAKESGANFISIRMSSIMDKWYGESNKIVDAMFSLANKLQPCIIFIDEIDSFLRERSSTDHEVTATLKAEFMTLWDGLLNNGRVMIIGATNRINDIDDAFLRRLPKRFLVSLPGSDQRYKILSVLLKDTKLDEDEFDLQLIADNTKGFSGSDLKELCREAALDAAKEYIKQKRQLIDSGTIDVNDTSSLKIRPLKTKDFTKKLRMDATSTLSSQPLDASGSGGSEASASAGAAGSGDGSGSGGSEGGTSGATDVESGPLSGKSRESKAKQSLQWEKLVKRSPALAEVTLDAYERTILSSIVTPDEINITFQDIGGLDPLISDLHESVIYPLMMPEVYSNSPLLQAPSGVLLYGPPGCGKTMLAKALAKESGANFISIRMSSIMDKWYGESNKIVDAMFSLANKLQPCIIFIDQIDSFLRERSSTDHEVTATLKAEFMTLWDGLLNNGRVMIIGATNRINDIDDAFLRRLPKRFLVSLPGSDQRYKILSVLLKDTKLDEDEFDLQLIADNTKGFSGSDLKELCREAALDAAKEYIKQKRQLIDSGTIDVNDTSSLKIRPLKTKDFTKKLRMDATSTLSSQPLD
notes: Msp1, subunit 1, wild type, deletion of the first 32 residues to remove the TMD; 35-residue flexible linker between the two subunits; Msp1, subunit 2, Walker B mutant E193Q, deletion of the first 32 residues to remove the TMD; Two Msp1 subunits on one chain; on SEC a mixture of the single chain (dimer) and the pseudohexamer (three chains); also called WT‐EQ dimer; source: E. coli BL21 pRIL, …
For the protein B2, the “stoichiometry N” value was 3.

B3: His6‐EQ‐WT‐2xStrep Dimer (covalently linked Msp1 dimer, soluble) (enzyme)
chain: B2 chain with E161Q, Q526E
notes: Msp1, subunit 1, Walker B mutant E193Q, deletion of the first 32 residues to remove the TMD; 35-residue flexible linker between the two subunits; Msp1, subunit 2, wild type, deletion of the first 32 residues to remove the TMD; Two Msp1 subunits on one chain; on SEC a mixture of the single chain (dimer) and the pseudohexamer (three chains); also called EQ‐WT dimer; source: E. coli BL21 pRIL, …
In the case of B3, the “stoichiometry N” value is 3.

These data come from PMC12793716, “Linked dimers of the AAA+ ATPase Msp1 reveal energetic demands and mechanistic plasticity for substrate extraction from lipid bilayers” (Febs Letters, 2025).
